In US20160053277A1, “Compositions Having Dicamba Decarboxylase Activity and Methods of Use” (PIONEER HI-BRED INTERNATIONAL, INC., priority 2013, published 2016):

Experiments:
[1] = 14C assay with IPTG-induced recombinant E. coli cells: 14CO2 captured from [14C]-carboxyl-labeled dicamba; settings: for Enzymatic Detection level: dicamba decarboxylation activity of the protein of the given SEQ ID NO, High / Low / No; for Dicamba Decarboxylase Activity: induced recombinant E. coli cells, [14C]-carboxyl-labeled dicamba, 14CO2 capture
[2] = Saturation mutagenesis of SEQ ID NO:109: dicamba decarboxylation activity of point mutants (carbon dioxide released); settings: decarboxylation activity (carbon dioxide released) of point mutant compared with unmutated backbone protein; backbone SEQ ID NO: 109

Molecule	Enzymatic Detection level [1]	Dicamba Decarboxylase Activity [1]	Fold Activity [2]
62 (protein, Bacillus thuringiensis serovar pulsiensis) MAVGGKNFRDVTDQVWCPKKRIEDMDREGVDIQVLSPIPVTFSYWAKPEEAESMARIQNDFIAETVLAYPDRFVGLGTVPMQDGETAIREMERCITELNLHGIEIGTNVNGKNLDDPSFIEFFRMAEKWQVPIFIHPWETLGRDRMPHHNFMYTVGMPSETALAAATLIWSGIMEKFPRLKVCFAHGGGSFPYILPRLDQGWKVWPHLRLTTHPPSYYAKKFYFDSLNYDPINLKYMIERFGHEKIFMGSDYPFLLREVDPGKVIDETASLSEEQKAAMLGGNAAEFLNIDIKKRGVAYAESTNT	No	No	1
69 (protein, listed as Microbacterium testaceum) MATSTEGQDVTDVHAHLLMPGLHAEVERRVPDEVQAAADLELRRNGLASLQASGRMIGERFPRLTDVRARLAAMDEQGVDRQWVSPSPNHFYPWANEGLATWASGEANRLIAEHVALAPDRLVGLGVVPLQHPHLVVDALDDAVLGRGLAGVEISSFAGDVELSDERLESFWARAAELRAVVFLHPFGCSLDERLDRFYLSNTVGQPTENAVALSHLIFSGVLDRHPGLRLIAAHGGGYLPTAIGRSDRAWRVRPEARGCAHAPSTYLSKLWFDTVVHDERALRWLVEAAGADRVLLGSDFPFDMGLDDPVAFVRGAGLQDAEVSGILGGNAAELLRTRVHA	No	No	1.3
64 (protein, listed as Achromobacter piechaudii) MAIQKIDMHAHFFPPITRQEAAALDPVNAPWLRPDADGATGQIMAGEREFRPVDATLWDPALRIEQMDRHGVDVQILCATPIMFGYTYPARPAADWAARMNDLALEHCAYAPSRLKALAQVPLQDLELACQEASRARAAGHLGVQIGNHVGPRDLDDETLVQFLIHCANNDIPVLVHPWDMMTDGRMKKWMLPWLVSMPAETQLGILSLILSGAFERIPRSLKLCFAHGGGSFAYLLGRVDNAWRHRDIIRQDCPQLPSSYTDRFYTDSAVFDPRSLRLLIDVMGEDRVLLGSDYPYPLGEQEVGRLVAHAELVPEVQQKILFRNTMTFFGLQPGLQPGLQS	Low	Low	1.8
70 (protein, listed as Alicyclobacillus acidocaldarius) MAIEPNRAADVHTHFLPTEVLEFLKREPRIQVDLERRAPDKEPFLTVEGRWSFELKRMFVDFEAFASAYRQAGIGLALVSPLPQLFVYHLPAEMGAQVAEVYNDALRDVLAPHRERFRPLATLPLADPTAAARELERRMDEGFVGAIVGPGVGEALIGDEAFWPLWEVADARRAVLFLHPLLHADPRAARLMLPNLVGVPWETTLAAAHLVLSGLLDRYPGARVLLAHGGGFLPYQIGRIEQGYDVWPQVRGRLQDRPTAYLRRMFYDNVLWSDAALRCLIDVVGADRVLAGSDFPFDLSAWPPRPGADVSVLAGGSGREGRLS	Low	Low	1.7
68 (protein, listed as Hoeflea phototrophica) MAIIDAHTHTLCPAVNEKVAGTIKPDSVPYQRDMSPESKEQDHTQFPELKIMFNQVERRLADMARMGIDRQVIAPAPGQQHYWAEPKLLAEISALQNDHVAELVARAPDRFAGIGTLPMTDPDAAVAEITRATRELGLRVFQIDSRVMERELSDASLDPIYAALEAAGAGLMIHPLGFSNGERLTPFFMVNSVAQPLEELLAFNHLVFGGVLDRFPKLKVYIAHGGGFAPFYIGRFDHAWKVRPEVNRLTPSAPSTYLRRIYFDTCVYRTDHIETLVRTVGADRVMLGSDYPFDMGDTDPLGLLNACQGLSDDEKATISSKVAIDFFGLET	No	No	1.3
